The target in the assay is T1, GST-K-p52 (human, UniProt O75475 1-325, 32P-labeled by HMK where used as Farwestern probe).
T1 construct: The Nru I-EcoR V fragment of p52 cDNA was put in pGEX-2T(K); also called GST-p52; p52 probe; not shown: glutathione-S-transferase from the pGEX-2T(K) vector; heart muscle kinase (K) site and vector linker
Description: Farwestern blot with 32P-labeled GST-K-p52.

T1 sequence (O75475 other isoform, or with tags, fused parts or gaps): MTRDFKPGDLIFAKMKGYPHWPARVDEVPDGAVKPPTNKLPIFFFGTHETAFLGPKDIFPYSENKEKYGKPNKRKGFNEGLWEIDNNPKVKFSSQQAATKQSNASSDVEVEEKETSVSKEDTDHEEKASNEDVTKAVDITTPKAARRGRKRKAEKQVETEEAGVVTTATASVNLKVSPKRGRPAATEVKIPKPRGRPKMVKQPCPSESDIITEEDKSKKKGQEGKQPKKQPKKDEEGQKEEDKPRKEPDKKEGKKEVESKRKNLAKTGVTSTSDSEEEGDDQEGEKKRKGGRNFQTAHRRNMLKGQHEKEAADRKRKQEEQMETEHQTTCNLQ

B1: GST-RS (GST-fused RS domain of ASF/SF2) (other, UniProt Q07955 198-248, looked up)
chain: RSPSYGRSRSRSRSRSRSRSRSNSRSRSYSPRRSRGSPRYSPRHSRSRSRT
notes: domain: RS domain; not shown: glutathione-S-transferase
As for B1, the binding result is given as “no binding”.
